Results from patent US4585754A, “Stabilization of proteins and peptides by chemical binding with chondroitin” (Valcor Scientific, Ltd., priority 1984, dated 1986).

Assays:
blood glucose levels = test: lowering blood glucose levels in mice, bound versus free insulin; format: in vivo, Female CD-1 Swiss white mice; conditions: subcutaneous, fasted mice
Method: Female CD-1 Swiss white mice averaging 20 g in weight were fasted overnight and used in groups of four. The insulins were injected subcutaneously, and blood specimens (50 microliters, by retro-orbital bleeding) were taken at intervals of 0.5, 3, 6, and 24 hours.

[1] = native, unmodified protein; cited from earlier work
trypsin = test: stability against proteolytic digestion by trypsin; format: in vitro ADME; conditions: 50 mcg./ml. trypsin, pH 7.8, 23 C, 10 mg./ml., after just over forty minutes
Method: (§1) The SOD-chondroitin sulfate A product was tested for stability against proteolytic digestion. An aqueous solution containing 10 mg./ml. of the product was incubated with 50 mcg./ml. of trypsin at pH 7.8 and 23 C, and aliquots were withdrawn from time to time and the SOD activity determined. For comparison, SOD alone with incubated with trypsin under the same conditions. After just over forty minutes, approximately 88 percent of the SOD-chondroitin product remained in the solution, compared with only about 8 percent of the unprotected SOD. This is a difference in stability of over eight-fold.

pepsin = test: stability against proteolytic digestion by pepsin; format: in vitro ADME; conditions: pepsin 500 ng./ml., pH 3.5, at two minutes
Method: as §1
Inasmuch as trypsin is known to be a very specific protease, cleaving only at the arginine and lysine residues, a further test was carried out according to substantially the same procedure using pepsin, a much more vigorous protease. The pH was kept low (3.5), since the optimum pH for pepsin is known to about 1.0-1.5. Even at the lowest concentration of pepsin tested (500 ng./ml.), digestion was very fast, but there was some degree of protection by the chondroitin compared with unprotected SOD.

Substance	blood glucose level at 24 hours (blood glucose levels; all dose levels, 24 hours)	comatose state (blood glucose levels; doses of 5.7 micrograms and above)	half-life in the body [1]	percent remaining in the solution (SOD activity) (trypsin)	SOD remaining after pepsin digestion (pepsin)
insulin [free insulin]	significant rebound glucose level by 24 hours	comatose in one-half hour	about 15 minutes		
superoxide dismutase [unprotected SOD]			about five	about 8%	essentially all destroyed
